Non-standard residues stand in square brackets, D forms with d. Groups on a side chain read outwards from the residue. Primed or numbered codes have the meaning given here. No end group written: not given here. *: point of attachment. Stearoyl = CCCCCCCCCCCCCCCCCC(=O)*; Tridecanoyl = CCCCCCCCCCCCC(=O)*; αMeF = C[C@](N)(Cc1ccccc1)C(=O)O; Lauroyl = CCCCCCCCCCCC(=O)*; dIva = CC[C@@](C)(N)C(=O)O; Iva = CC[C@](C)(N)C(=O)O; PEG2′ = not defined here; Dda = not defined here; Hexanoyl = CCCCCC(=O)*; Aib = CC(C)(N)C(=O)O Bounds are passed on as bounds.

In patent US20180298070A1, “PEPTIDE COMPOUND” (Takeda Pharmaceutical Company Limited, published 2018) one finds IC50 and Agonist activity (EC50, M) data, which are given here for 24 molecules.

The target of assay [1] is T1, human GIPR (human), P48546.
T1 chain: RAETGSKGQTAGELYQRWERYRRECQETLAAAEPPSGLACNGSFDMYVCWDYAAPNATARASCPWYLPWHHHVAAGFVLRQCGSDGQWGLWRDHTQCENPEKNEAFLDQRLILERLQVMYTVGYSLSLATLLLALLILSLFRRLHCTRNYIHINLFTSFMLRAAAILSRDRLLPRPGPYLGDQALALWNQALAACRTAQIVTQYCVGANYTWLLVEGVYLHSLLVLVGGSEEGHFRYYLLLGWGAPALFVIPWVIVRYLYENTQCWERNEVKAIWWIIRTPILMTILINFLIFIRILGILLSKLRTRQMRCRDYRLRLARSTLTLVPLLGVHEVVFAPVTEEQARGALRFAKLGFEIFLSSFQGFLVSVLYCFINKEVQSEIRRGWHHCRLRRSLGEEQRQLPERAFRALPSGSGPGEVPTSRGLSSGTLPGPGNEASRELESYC
The assay is described as follows: [125I]GIP displacement, hGIPR VLP.

Assay [2] concerns the target T2, human GLP-1R (human), P43220.
T2 chain: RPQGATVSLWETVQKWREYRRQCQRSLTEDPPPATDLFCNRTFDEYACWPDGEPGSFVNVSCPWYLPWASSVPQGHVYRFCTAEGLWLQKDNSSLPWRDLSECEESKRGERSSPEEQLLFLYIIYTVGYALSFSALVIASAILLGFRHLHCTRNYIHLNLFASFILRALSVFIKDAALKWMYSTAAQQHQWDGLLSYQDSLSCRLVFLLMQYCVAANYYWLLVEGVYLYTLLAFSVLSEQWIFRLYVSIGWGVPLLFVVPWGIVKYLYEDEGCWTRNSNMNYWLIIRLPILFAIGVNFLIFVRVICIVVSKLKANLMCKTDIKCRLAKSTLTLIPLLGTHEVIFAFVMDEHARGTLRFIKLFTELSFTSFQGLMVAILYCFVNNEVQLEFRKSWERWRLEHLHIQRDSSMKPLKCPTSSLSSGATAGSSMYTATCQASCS

For assay [3], the target named is T1, human GIPR (human), P48546.

Usually IC50 stands for the point on the concentration scale where inhibition reaches its midpoint. The low end stands for greater potency in that assay, the high end for weaker potency in that assay. Y[Aib]EGTFISDYSK([PEG(2)-Lauroyl])ALDRIAQ[Aib]NFVNWLLAQRPSSGAPPPS (ends and bridges not checked) [Compound 204] returned an IC50 in assay [1] of 2.6 nM. Moreover, the Agonist activity (EC50, M) in assay [2] turned out to be 9.5e-09 M; in assay [3], 8.1e-12 M.

Y[Aib]EGTFISDYSK([PEG(2)-Stearoyl])ALDRIHQQDFVNWLLAQRPSSGAPPPS (ends and bridges not checked) [Compound 176]: the IC50 in assay [1] was 3.4 nM. In addition, the Agonist activity (EC50, M) in assay [2] was over 1e-06 M; in assay [3], 1.9e-11 M.

In turn, Y[Aib]EGTFISDYSK([PEG(2)-Lauroyl])ALDRIAQQSFVNWLLAQRPSSGAPPPS (ends and bridges not checked) [Compound 203] displayed an IC50 in assay [1] of 2.1 nM. Also, the Agonist activity (EC50, M) in assay [2] was over 1e-06 M; in assay [3], 4.3e-12 M.

The molecule Y[Aib]EGTFISDYSK([PEG2′-Dda])ALDRIAQQDFVNWLLAQRPSSGAPPPSR (ends and bridges not checked) [Compound 188] gave an IC50 in assay [1] of 2.7 nM. In addition, the Agonist activity (EC50, M) in assay [2] stood at 2e-07 M; in assay [3] it was 3e-12 M.

For Y[Aib]EGTFISDYSK([PEG(2)-Pal])ALDRIHQQDFVNWLLAQRPSSGAPPPSR (ends and bridges not checked) [Compound 177], the IC50 in assay [1] came to 2.4 nM. The Agonist activity (EC50, M) is over 1e-06 M in assay [2] and 7.2e-12 M in assay [3].

Consider Y[Aib]EGTFISDYSK([PEG(2)-Lauroyl])ALDRIAQQSFVNWLLAQRPSSGAPPPSR (ends and bridges not checked) [Compound 196], for which the IC50 in assay [1] amounted to 2.4 nM. For the same molecule, the results for the Agonist activity (EC50, M) in assay [2] and in assay [3] were 4.4e-08 M and 6.3e-12 M, respectively.

In assay [1], Y[Aib]EGTVVSLYSK(Pal)[Aib]LDKQAQ[Aib]EFVKWLLAQK (ends and bridges not checked) [Compound 159] came in with an IC50 of 8.1 nM. Further, the Agonist activity (EC50, M) was over 1e-06 M in assay [2] and 7.8e-10 M in assay [3].

In assay [1], Y[Aib]EGTFISDYSK([PEG(2)-Lauroyl])ALDR[Aib]AQQDFVNWLLAQRPSSGAPPPS (ends and bridges not checked) [Compound 205] came in with an IC50 of 1.6 nM. Further, the Agonist activity (EC50, M) in assay [2] came to 2.9e-08 M; in assay [3], 3.4e-12 M.

Turning to Y[Aib]EGTFISDYSK([PEG2′-Lauroyl])ALDRIAQQS[αMeF]VNW[Iva]LAQRPSSGAPPPS (not fully specified (C-terminus); ends and bridges not checked) [Compound 221], the IC50 in assay [1] was 3 nM. Also, the Agonist activity (EC50, M) in assay [2] was over 1e-06 M; in assay [3] it was 7.1e-12 M.

In assay [1], Y[Aib]EGTFISDYSK([PEG2′-Lauroyl])ALDR[Aib]HQ[Aib]NFVNW[Iva]LAQRPSSGAPPPS (not fully specified (C-terminus); ends and bridges not checked) [Compound 215] had an IC50 of 2.8 nM. For the same molecule, the figures for the Agonist activity (EC50, M) in assay [2] and in assay [3] were 1.5e-07 M and 2.8e-12 M, respectively.

Consider Y[Aib]EGTVVSLYSI[Aib]LDKQAQ[Aib]EFVKWLLAQKK([PEG(2)-Pal]) (ends and bridges not checked) [Compound 160], for which, in assay [1], the IC50 was 4.1 nM. Further, the Agonist activity (EC50, M) in assay [2] was over 1e-06 M; in assay [3], 9.5e-11 M.

In assay [1], Y[Aib]EGTFISDYSK([PEG2′-Hexanoyl])ALDRIHQQDFVNWLLAQRPSSGAPPPSR (ends and bridges not checked) [Compound 179] registered an IC50 of 2.1 nM. Moreover, the values for the Agonist activity (EC50, M) in assay [2] and in assay [3] were over 1e-06 M and 3e-12 M, respectively.

In the case of Y[Aib]EGTFISDYSK([PEG2′-Stearoyl])ALDRIHQQDFVNWLLAQRPSSGAPPPSR (ends and bridges not checked) [Compound 181], in assay [1], the IC50 amounted to 2.6 nM. The Agonist activity (EC50, M) is over 1e-06 M in assay [2] and 9.2e-12 M in assay [3].

Take Y[Aib]EGTFISDYSK([PEG(2)-Lauroyl])ALDRIAQQDFVNWLLAQRPSSGAPPPS (ends and bridges not checked) [Compound 191]: the IC50 in assay [1] was determined as 2.7 nM. For the same molecule, the Agonist activity (EC50, M) was 5e-08 M in assay [2] and 4.1e-12 M in assay [3].

Y[Aib]EGTFISDYSK([PEG(2)-Lauroyl])[dIva]LDRIAQQDFVNWLLAQRPSSGAPPPSR (ends and bridges not checked) [Compound 199]: in assay [1], the IC50 stood at 2.4 nM. The Agonist activity (EC50, M) in assay [2] was over 1e-06 M; in assay [3] it was 3.4e-11 M.

As for Y[Aib]EGTFISDYSK([PEG(2)-Lauroyl])ALDRIAQQD[αMeF]VNWLLAQRPSSGAPPPSR (ends and bridges not checked) [Compound 195], the IC50 in assay [1] was 2.3 nM. The Agonist activity (EC50, M) in assay [2] worked out at 1e-07 M; in assay [3] it was 4.8e-12 M.

As to Y[Aib]EGTFISDYSK([PEG2′-Ac])ALDRIHQQDFVNWLLAQRPSSGAPPPSR (ends and bridges not checked) [Compound 178], in assay [1], the IC50 worked out at 3 nM. The figures for the Agonist activity (EC50, M) in assay [2] and in assay [3] were over 1e-06 M and 4.2e-12 M, respectively.

In assay [1], Y[Aib]EGTFISDYSK([PEG2′-Tridecanoyl])ALDRIAQQDFVNWLLAQRPSSGAPPPSR (ends and bridges not checked) [Compound 185] showed an IC50 of 19 nM. Besides, the results for the Agonist activity (EC50, M) in assay [2] and in assay [3] were 2.6e-08 M and 7e-12 M, respectively.

Y[Aib]EGTFISDYSK([PEG(2)-Lauroyl])ALDRIAQ[Aib]NFVNWLLAQRPSSGAPPPSR (ends and bridges not checked) [Compound 197]: in assay [1], the IC50 stood at 2.6 nM. In addition, the Agonist activity (EC50, M) came out at 1.1e-08 M in assay [2] and 5.6e-12 M in assay [3].

In assay [1], Y[Aib]EGTFISDYSK([PEG(2)-Ac])ALDRIHQQDFVNWLLAQRPSSGAPPPS (ends and bridges not checked) [Compound 173] registered an IC50 of 7.1 nM. For the same molecule, the figures for the Agonist activity (EC50, M) in assay [2] and in assay [3] were over 1e-06 M and 4.4e-12 M, respectively.

Regarding Y[Aib]EGTFISDYSK([PEG2′-Lauroyl])ALDRIAQQSFVNW[Iva]LAQRPSSGAPPPS (not fully specified (C-terminus); ends and bridges not checked) [Compound 220], in assay [1], the IC50 stood at 2.9 nM. Further, the Agonist activity (EC50, M) in assay [2] was 9.9e-08 M; in assay [3], 5.3e-12 M.

On to Y[Aib]EGTFISDYSK([PEG2′-Lauroyl])ALDRIHQQDFVNWLLAQRPSSGAPPPSR (ends and bridges not checked) [Compound 180], for which the IC50 in assay [1] worked out at 1.2 nM. The Agonist activity (EC50, M) in assay [2] was over 1e-06 M; in assay [3] it was 1.9e-12 M.

Molecule Y[Aib]EGTVVSLYSI[Aib]LDKQAQ[Aib]EFVKWLLKGK(Pal) (ends and bridges not checked) [Compound 163] had an IC50 in assay [1] of 50 nM. The Agonist activity (EC50, M) in assay [2] is over 1e-06 M; in assay [3], 6.6e-09 M.

As to Y[Aib]EGTFISDYSK([PEG(2)-Lauroyl])ALDRIAQQDFVN[αMeF]LLAQRPSSGAPPPSR (ends and bridges not checked) [Compound 194], in assay [1], the IC50 was 2.3 nM. The Agonist activity (EC50, M) in assay [2] came to 2.5e-08 M; in assay [3], 3.5e-12 M.
